According to publication PMC10312975 (Research Square, 2023):

B1: CCDC22 DBD (280-446), untagged (domain or fragment, human, UniProt O60826 280-446, looked up)
chain: GAGAKTGAPKGSRFTHSEKFTFHLEPQAQATQVSDVPATSRRPEQVTWAAQEQELESLREQLEGVNRSIEEVEADMKTLGVSFVQAESECRHSKLSTAEREQALRLKSRAVELLPDGTANLAKLQLVVENSAQRVIHLAGQWEKHRVPLLAEYRHLRKLQDCRELES
notes: CCDC22, human, DBD; source: E. coli BL21 (DE3) T1R, purified, MBP removed with TEV; not shown: MBP, N-terminal, cleaved

Key:
Details in all cases: both partners purified
[1] = molecular target: T1, DENND10, full length, His6 tag removed (human, UniProt Q8TCE6 1-357); assay: SEC; untagged DBD dimer and DENND10, alone and mixed; Superdex 200, 100 mM NaCl, 10 mM HEPES pH 7.0, 5% glycerol, 1 mM DTT; SDS-PAGE of fractions
T1 construct: DENND10 (FAM45A), human, codon-optimised gene; source: E. coli BL21 (DE3) T1R, purified (Source 15Q, TEV cleavage, Source 15Q); not shown: His6, N-terminal, cleaved
T1 sequence (Q8TCE6 whole entry): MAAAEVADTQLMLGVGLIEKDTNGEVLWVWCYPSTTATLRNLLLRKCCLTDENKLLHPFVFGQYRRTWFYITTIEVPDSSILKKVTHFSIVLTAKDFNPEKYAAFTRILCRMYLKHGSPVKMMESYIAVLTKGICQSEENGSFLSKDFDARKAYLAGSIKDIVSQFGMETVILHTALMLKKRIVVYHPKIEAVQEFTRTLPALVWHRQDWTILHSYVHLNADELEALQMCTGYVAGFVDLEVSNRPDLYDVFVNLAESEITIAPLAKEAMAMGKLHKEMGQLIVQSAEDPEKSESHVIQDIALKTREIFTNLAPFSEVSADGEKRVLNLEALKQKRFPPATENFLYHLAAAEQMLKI

[2] = molecular target: T2, His6-Tev-DENND10, full length (pull-down prey) (human, UniProt Q8TCE6 1-357); assay: pull-down; MBP-tagged DBD dimer (200 pmol) as bait on amylose beads, DENND10 (500 pmol) as prey; 10 mM HEPES pH 7, 150 mM NaCl, 5% glycerol, 0.05% Triton X-100, 5 mM beta-mercaptoethanol, 4 °C, 30 min; Coomassie
T2 construct: DENND10 (FAM45A), human, codon-optimised gene; source: E. coli BL21 (DE3) T1R, purified (Ni-NTA, Source 15Q, Superdex Increase 200)
T2 sequence (Q8TCE6 whole entry): as above

[3] = molecular target: B1; assay: SEC; untagged DBD dimer and DENND10, alone and mixed; Superdex 200, 100 mM NaCl, 10 mM HEPES pH 7.0, 5% glycerol, 1 mM DTT; SDS-PAGE of fractions
MBP-CCDC22 (280-446) = molecular target: T3, MBP-CCDC22 (280-446) (human, UniProt O60826 280-446); assay: reconstitution by mixing and co-purification; amylose-purified MBP-tagged CCDC22 and CCDC93 fragments mixed about 1:1, overnight at 4 °C, then Source 15Q and Superdex 200
T3 construct: CCDC22, human, DBD; also called MBP-CCDC22 DBD; source: E. coli BL21 (DE3) T1R, purified (amylose); not shown: MBP, N-terminal, kept

B1
binding result [1]: binds

B2: MBP-tagged CCDC22-CCDC93 DBD dimer, CCDC93 E410R (complex, human)
chain 1: GAGAKTGAPKGSRFTHSEKFTFHLEPQAQATQVSDVPATSRRPEQVTWAAQEQELESLREQLEGVNRSIEEVEADMKTLGVSFVQAESECRHSKLSTAEREQALRLKSRAVELLPDGTANLAKLQLVVENSAQRVIHLAGQWEKHRVPLLAEYRHLRKLQDCRELES
chain 2: SPEKLGTSQLHRRKVISLNKQIAQKTKHLEELRASHTSLQARYNEAKKTLTELKTYSEKLDKEQAALEKIESKADPSILQNLRALVAMNENLKSQEQEFKAHCRERMTRLQQEIENLKAERAPRGDEKT
notes: CCDC22, human, DBD; CCDC93, human, DBD; source: E. coli BL21 (DE3) T1R, purified; not shown: MBP, N-terminal, kept
binding result [2]: binds

B3: MBP-tagged CCDC22-CCDC93 DBD dimer (complex, human)
chain 1: GAGAKTGAPKGSRFTHSEKFTFHLEPQAQATQVSDVPATSRRPEQVTWAAQEQELESLREQLEGVNRSIEEVEADMKTLGVSFVQAESECRHSKLSTAEREQALRLKSRAVELLPDGTANLAKLQLVVENSAQRVIHLAGQWEKHRVPLLAEYRHLRKLQDCRELES
chain 2: SPEKLGTSQLHRRKVISLNKQIAQKTKHLEELRASHTSLQARYNEAKKTLTELKTYSEKLDKEQAALEKIESKADPSILQNLRALVAMNENLKSQEQEFKAHCREEMTRLQQEIENLKAERAPRGDEKT
notes: CCDC22, human, DBD (CC1, CC2a); CCDC93, human, DBD (CC1, CC2a); also called DBD heterodimer; source: E. coli BL21 (DE3) T1R, purified (amylose, mixed about 1:1, Source 15Q, Superdex 200); not shown: MBP, N-terminal, kept
binding result [2]: binds

B4: CCDC93 DBD (305-433), untagged (domain or fragment, human, UniProt Q567U6 305-433, looked up)
chain: SPEKLGTSQLHRRKVISLNKQIAQKTKHLEELRASHTSLQARYNEAKKTLTELKTYSEKLDKEQAALEKIESKADPSILQNLRALVAMNENLKSQEQEFKAHCREEMTRLQQEIENLKAERAPRGDEKT
notes: CCDC93, human, DBD; source: E. coli BL21 (DE3) T1R, purified, MBP removed with TEV; not shown: MBP, N-terminal, cleaved
binding result [3]: binds | binding result [1]: binds

B5: MBP-CCDC93 (305-433) (domain or fragment, human, UniProt Q567U6 305-433, looked up)
chain: SPEKLGTSQLHRRKVISLNKQIAQKTKHLEELRASHTSLQARYNEAKKTLTELKTYSEKLDKEQAALEKIESKADPSILQNLRALVAMNENLKSQEQEFKAHCREEMTRLQQEIENLKAERAPRGDEKT
notes: CCDC93, human, DBD; also called MBP-CCDC93 DBD; source: E. coli BL21 (DE3) T1R, purified (amylose); not shown: MBP, N-terminal, kept
binding result (MBP-CCDC22 (280-446)): binds
